Measured values reported in article PMC10786891, “Massively parallel profiling of RNA-targeting CRISPR-Cas13d”.
Where a chain is given by its changes, count along the chain named. Names and notes keep the numbering of the source.

T1: EsCas13d, nuclease-dead (Eubacterium siraeum, UniProt B0MS50, R295A;H300A;R849A;H854A)
T1 sequence: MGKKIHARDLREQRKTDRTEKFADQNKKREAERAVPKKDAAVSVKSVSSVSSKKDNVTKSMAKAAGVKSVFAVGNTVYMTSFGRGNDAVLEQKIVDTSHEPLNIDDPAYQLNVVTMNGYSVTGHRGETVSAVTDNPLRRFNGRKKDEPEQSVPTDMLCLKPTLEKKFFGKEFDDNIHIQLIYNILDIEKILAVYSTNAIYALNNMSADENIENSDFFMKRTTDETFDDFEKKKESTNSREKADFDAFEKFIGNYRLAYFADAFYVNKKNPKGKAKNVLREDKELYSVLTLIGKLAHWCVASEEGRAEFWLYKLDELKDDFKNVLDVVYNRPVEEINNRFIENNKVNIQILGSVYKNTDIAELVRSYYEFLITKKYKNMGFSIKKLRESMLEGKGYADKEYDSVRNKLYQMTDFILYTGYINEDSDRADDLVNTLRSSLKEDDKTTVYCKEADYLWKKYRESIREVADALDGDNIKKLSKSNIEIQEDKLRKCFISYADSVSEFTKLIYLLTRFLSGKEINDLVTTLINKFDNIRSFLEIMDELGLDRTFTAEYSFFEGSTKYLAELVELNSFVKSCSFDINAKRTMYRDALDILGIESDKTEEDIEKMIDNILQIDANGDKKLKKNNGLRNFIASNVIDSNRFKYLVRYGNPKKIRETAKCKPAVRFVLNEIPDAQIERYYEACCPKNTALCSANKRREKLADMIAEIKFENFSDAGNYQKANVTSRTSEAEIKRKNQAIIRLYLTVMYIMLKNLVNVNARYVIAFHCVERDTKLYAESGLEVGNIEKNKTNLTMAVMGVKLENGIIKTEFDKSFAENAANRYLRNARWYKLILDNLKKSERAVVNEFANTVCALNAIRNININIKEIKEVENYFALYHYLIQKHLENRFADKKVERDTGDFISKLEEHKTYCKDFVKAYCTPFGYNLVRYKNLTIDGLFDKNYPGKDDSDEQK

B1: target 1 insG 3' of 4,insU 3' of 1 (mixed)
RNA 1: CACCCGUGCAAAAAUGCAGGGGUCUAAAACUGAGCGGAUAACCUCUCUAUGG
RNA 2: GGGAAUGGAUCCACAUCUACGAAUUCGUACCAUAGAGAGGUUAUCCGCGUCAUCCGAGAUCGGAAGAGCACACGU
B2: target 1 insC 3' of 18,insA 3' of 10 (mixed)
RNA 1: B1 RNA 1
RNA 2: GGGAAUGGAUCCACAUCUACGAAUUCGUACCAUACGAGAGGUUAAUCCGCUCACCGAGAUCGGAAGAGCACACGU
B3: target 1 C6G,C21U (mixed)
RNA 1: B1 RNA 1
RNA 2: GGGAAUGGAUCCACAUCUACGAAUUCGUACUAUAGAGAGGUUAUCGGCUCACCGAGAUCGGAAGAGCACACGU
B4: target 1 U3G,C7U (mixed)
RNA 1: B1 RNA 1
RNA 2: B3 RNA 2 with U31C, C45U, G46C, U49G
B5: target 2 MT 5'PFS CUC 3'PFS UAC (mixed)
RNA 1: CACCCGUGCAAAAUUGCAGGGGUCUAAAACCUUCUCCAAAUUGUUUCAUCCU
RNA 2: GGGAAUGGAUCCACAUCUACGAAUUCCUCAGGAUGAAACAAUUUGGAGAAGUACAGAUCGGAAGAGCACACGU
B6: target 2 MT 5'PFS AAU 3'PFS CGC (mixed)
RNA 1: B5 RNA 1
RNA 2: B5 RNA 2 with C27A, U28A, C29U, U52C, A53G
B7: target 2 MT 5'PFS AGC 3'PFS AGU (mixed)
RNA 1: B5 RNA 1
RNA 2: B5 RNA 2 with C27A, U28G, U52A, A53G, C54U
B8: target 2 MT 5'PFS CUC 3'PFS UAG (mixed)
RNA 1: B5 RNA 1
RNA 2: B5 RNA 2 with C54G
B9: target 2 MT 5'PFS AGC 3'PFS AGA (mixed)
RNA 1: B5 RNA 1
RNA 2: B5 RNA 2 with C27A, U28G, U52A, A53G, C54A
B10: target 2 MT 5'PFS AGA 3'PFS ACC (mixed)
RNA 1: B5 RNA 1
RNA 2: B5 RNA 2 with C27A, U28G, C29A, U52A, A53C
B11: target 2 MT 5'PFS AGC 3'PFS AGG (mixed)
RNA 1: B5 RNA 1
RNA 2: B5 RNA 2 with C27A, U28G, U52A, A53G, C54G
B12: target 2 MT 5'PFS GUU 3'PFS AGU (mixed)
RNA 1: B5 RNA 1
RNA 2: B5 RNA 2 with C27G, C29U, U52A, A53G, C54U
B13: target 2 MT 5'PFS CUC 3'PFS UAA (mixed)
RNA 1: B5 RNA 1
RNA 2: B5 RNA 2 with C54A
B14: target 2 MT 5'PFS GGG 3'PFS AAG (mixed)
RNA 1: B5 RNA 1
RNA 2: B5 RNA 2 with C27G, U28G, C29G, U52A, C54G
B15: target 2 MT 5'PFS AUA 3'PFS CUG (mixed)
RNA 1: B5 RNA 1
RNA 2: B5 RNA 2 with C27A, C29A, U52C, A53U, C54G
B16: target 2 MT 5'PFS ACC 3'PFS CUA (mixed)
RNA 1: B5 RNA 1
RNA 2: B5 RNA 2 with C27A, U28C, U52C, A53U, C54A
B17: target 2 MT 5'PFS AGC 3'PFS AGC (mixed)
RNA 1: B5 RNA 1
RNA 2: B5 RNA 2 with C27A, U28G, U52A, A53G
B18: target 2 MT 5'PFS GGG 3'PFS AAA (mixed)
RNA 1: B5 RNA 1
RNA 2: B5 RNA 2 with C27G, U28G, C29G, U52A, C54A
B19: target 2 MT 5'PFS AGC 3'PFS UAU (mixed)
RNA 1: B5 RNA 1
RNA 2: B5 RNA 2 with C27A, U28G, C54U
B20: target 2 MT 5'PFS GUU 3'PFS AGG (mixed)
RNA 1: B5 RNA 1
RNA 2: B5 RNA 2 with C27G, C29U, U52A, A53G, C54G
B21: target 2 MT 5'PFS AUA 3'PFS CUC (mixed)
RNA 1: B5 RNA 1
RNA 2: B5 RNA 2 with C27A, C29A, U52C, A53U
B22: target 2 MT 5'PFS AGC 3'PFS CAC (mixed)
RNA 1: B5 RNA 1
RNA 2: B5 RNA 2 with C27A, U28G, U52C
B23: target 2 MT 5'PFS AUA 3'PFS CUA (mixed)
RNA 1: B5 RNA 1
RNA 2: B5 RNA 2 with C27A, C29A, U52C, A53U, C54A
B24: target 2 MT 5'PFS AGC 3'PFS CAU (mixed)
RNA 1: B5 RNA 1
RNA 2: B5 RNA 2 with C27A, U28G, U52C, C54U
B25: target 2 MT 5'PFS CGG 3'PFS UAC (mixed)
RNA 1: B5 RNA 1
RNA 2: B5 RNA 2 with U28G, C29G
B26: target 2 MT 5'PFS AUA 3'PFS CUU (mixed)
RNA 1: B5 RNA 1
RNA 2: B5 RNA 2 with C27A, C29A, U52C, A53U, C54U
B27: target 2 MT 5'PFS GUU 3'PFS AGA (mixed)
RNA 1: B5 RNA 1
RNA 2: B5 RNA 2 with C27G, C29U, U52A, A53G, C54A
B28: target 2 MT 5'PFS UCA 3'PFS UCA (mixed)
RNA 1: B5 RNA 1
RNA 2: B5 RNA 2 with C27U, U28C, C29A, A53C, C54A
B29: target 2 MT 5'PFS AGA 3'PFS ACA (mixed)
RNA 1: B5 RNA 1
RNA 2: B5 RNA 2 with C27A, U28G, C29A, U52A, A53C, C54A
B30: target 2 MT 5'PFS CGG 3'PFS UAA (mixed)
RNA 1: B5 RNA 1
RNA 2: B5 RNA 2 with U28G, C29G, C54A
B31: target 2 MT 5'PFS GUU 3'PFS AGC (mixed)
RNA 1: B5 RNA 1
RNA 2: B5 RNA 2 with C27G, C29U, U52A, A53G
B32: target 2 MT 5'PFS AGC 3'PFS CAG (mixed)
RNA 1: B5 RNA 1
RNA 2: B5 RNA 2 with C27A, U28G, U52C, C54G
B33: target 2 MT 5'PFS GGG 3'PFS AAC (mixed)
RNA 1: B5 RNA 1
RNA 2: B5 RNA 2 with C27G, U28G, C29G, U52A
B34: target 2 MT 5'PFS AGA 3'PFS ACG (mixed)
RNA 1: B5 RNA 1
RNA 2: B5 RNA 2 with C27A, U28G, C29A, U52A, A53C, C54G
B35: target 2 MT 5'PFS AUG 3'PFS CGA (mixed)
RNA 1: B5 RNA 1
RNA 2: B5 RNA 2 with C27A, C29G, U52C, A53G, C54A
B36: target 2 MT 5'PFS AGA 3'PFS ACU (mixed)
RNA 1: B5 RNA 1
RNA 2: B5 RNA 2 with C27A, U28G, C29A, U52A, A53C, C54U
B37: target 2 MT 5'PFS AGC 3'PFS CAA (mixed)
RNA 1: B5 RNA 1
RNA 2: B5 RNA 2 with C27A, U28G, U52C, C54A
B38: target 2 MT 5'PFS GCU 3'PFS CUU (mixed)
RNA 1: B5 RNA 1
RNA 2: B5 RNA 2 with C27G, U28C, C29U, U52C, A53U, C54U

Target: T1, EsCas13d, nuclease-dead
Test: crRNA (strand 1, pre-loaded); Mg2+; 40 mM Tris-HCl pH 7.5, 150 mM NaCl, 6 mM MgCl2, 1 mM DTT, 0.1% Tween-20, 0.2 mg/ml BSA; 25 C; 10 min per concentration, then washed
Details: tags: His6-TwinStrep-SUMO cleaved; N-terminal SNAP kept (SNAP-Surface 488); label: 3' end held by stalled T7 RNA polymerase

Binder | Kd
B1 | 9.1 ± 0.4 nM
B2 | 52 ± 4 nM
B3 | 5.38 ± 0.17 nM
B4 | 5.39 ± 0.15 nM
B5 | 2.32 ± 0.23 nM
B6 | 7.3 ± 1.3 nM
B7 | 10.2 ± 1.6 nM
B8 | 3.4 ± 0.6 nM
B9 | 7.1 ± 1 nM
B10 | 21 ± 9 nM
B11 | 7.1 ± 1 nM
B12 | 9.9 ± 0.8 nM
B13 | 2.05 ± 0.35 nM
B14 | 8.9 ± 1 nM
B15 | 8.8 ± 1.6 nM
B16 | 9.7 ± 2.5 nM
B17 | 7.1 ± 1.6 nM
B18 | 6.7 ± 0.9 nM
B19 | 8.9 ± 1.3 nM

Binder | Kd
B20 | 12.5 ± 0.9 nM
B21 | 13 ± 4 nM
B22 | 11.4 ± 2.6 nM
B23 | 6.1 ± 1.4 nM
B24 | 7.3 ± 1.3 nM
B25 | 5.3 ± 0.6 nM
B26 | 20 ± 6 nM
B27 | 10 ± 1.1 nM
B28 | 4.3 ± 0.7 nM
B29 | 4.6 ± 1.1 nM
B30 | 4.4 ± 0.7 nM
B31 | 11.6 ± 1.2 nM
B32 | 6.7 ± 1.1 nM
B33 | 8.7 ± 1 nM
B34 | 10.3 ± 1.8 nM
B35 | 9.4 ± 1 nM
B36 | 11.6 ± 1.9 nM
B37 | 7 ± 1.8 nM
B38 | 17.5 ± 3 nM
